Article PMC10611586, “Molecular basis for ubiquitin/Fubi cross-reactivity in USP16 and USP36” (Nature Chemical Biology, 2023)

B1: USP16^191–823 (catalytic domain) (enzyme, human, UniProt Q9Y5T5 191-823, looked up)
chain: CQITVKGLSNLGNTCFFNAVMQNLSQTPVLRELLKEVKMSGTIVKIEPPDLALTEPLEINLEPPGPLTLAMSQFLNEMQETKKGVVTPKELFSQVCKKAVRFKGYQQQDSQELLRYLLDGMRAEEHQRVSKGILKAFGNSTEKLDEELKNKVKDYEKKKSMPSFVDRIFGGELTSMIMCDQCRTVSLVHESFLDLSLPVLDDQSGKKSVNDKNLKKTVEDEDQDSEEEKDNDSYIKERSDIPSGTSKHLQKKAKKQAKKQAKNQRRQQKIQGKVLHLNDICTIDHPEDSEYEAEMSLQGEVNIKSNHISQEGVMHKEYCVNQKDLNGQAKMIESVTDNQKSTEEVDMKNINMDNDLEVLTSSPTRNLNGAYLTEGSNGEVDISNGFKNLNLNAALHPDEINIEILNDSHTPGTKVYEVVNEDPETAFCTLANREVFNTDECSIQHCLYQFTRNEKLRDANKLLCEVCTRRQCNGPKANIKGERKHVYTNAKKQMLISLAPPVLTLHLKRFQQAGFNLRKVNKHIKFPEILDLAPFCTLKCKNVAEENTRVLYSLYGVVEHSGTMRSGHYTAYAKARTANSHLSNLVLHGDIPQDFEMESKGQWFHISDTHVQAVPTTKVLNSQAYLLFYERIL
notes: USP16, human, catalytic domain, residues 191-823; also called recombinant USP16; source: E. coli Rosetta2(DE3)pLacI, purified (HisTrap, 3C cleavage, reverse Ni-NTA, anion exchange, SEC)
B2: USP36^81–461 (catalytic domain, longer construct) (enzyme, human, UniProt Q9P275 81-461, looked up)
chain: ARRQGSEHTYESCGDGVPAPQKVLFPTERLSLRWERVFRVGAGLHNLGNTCFLNATIQCLTYTPPLANYLLSKEHARSCHQGSFCMLCVMQNHIVQAFANSGNAIKPVSFIRDLKKIARHFRFGNQEDAHEFLRYTIDAMQKACLNGCAKLDRQTQATTLVHQIFGGYLRSRVKCSVCKSVSDTYDPYLDVALEIRQAANIVRALELFVKADVLSGENAYMCAKCKKKVPASKRFTIHRTSNVLTLSLKRFANFSGGKITKDVGYPEFLNIRPYMSQNNGDPVMYGLYAVLVHSGYSCHAGHYYCYVKASNGQWYQMNDSLVHSSNVKVVLNQQAYVLFYLRIPGSKKSPEGLISRTGSSSLPGRPSVIPDHSKKNIGNGI
notes: also called recombinant USP36; source: E. coli Rosetta2(DE3)pLacI, purified (HisTrap, 3C cleavage, cation exchange)
B3: USP36^81–424 (catalytic domain, shorter construct) (enzyme, human, UniProt Q9P275 81-424, looked up)
chain: ARRQGSEHTYESCGDGVPAPQKVLFPTERLSLRWERVFRVGAGLHNLGNTCFLNATIQCLTYTPPLANYLLSKEHARSCHQGSFCMLCVMQNHIVQAFANSGNAIKPVSFIRDLKKIARHFRFGNQEDAHEFLRYTIDAMQKACLNGCAKLDRQTQATTLVHQIFGGYLRSRVKCSVCKSVSDTYDPYLDVALEIRQAANIVRALELFVKADVLSGENAYMCAKCKKKVPASKRFTIHRTSNVLTLSLKRFANFSGGKITKDVGYPEFLNIRPYMSQNNGDPVMYGLYAVLVHSGYSCHAGHYYCYVKASNGQWYQMNDSLVHSSNVKVVLNQQAYVLFYLRIP
notes: USP36, human, catalytic domain, residues 81-424; also called shorter USP36^81–424 construct; source: E. coli Rosetta2(DE3)pLacI, purified (HisTrap, 3C cleavage, cation exchange)
B4: USP2^258–605 (catalytic domain) (enzyme, human, UniProt O75604 258-605, looked up)
chain: MNSKSAQGLAGLRNLGNTCFMNSILQCLSNTRELRDYCLQRLYMRDLHHGSNAHTALVEEFAKLIQTIWTSSPNDVVSPSEFKTQIQRYAPRFVGYNQQDAQEFLRFLLDGLHNEVNRVTLRPKSNPENLDHLPDDEKGRQMWRKYLEREDSRIGDLFVGQLKSSLTCTDCGYCSTVFDPFWDLSLPIAKRGYPEVTLMDCMRLFTKEDVLDGDEKPTCCRCRGRKRCIKKFSIQRFPKILVLHLKRFSESRIRTSKLTTFVNFPLRDLDLREFASENTNHAVYNLYAVSNHSGTTMGGHYTAYCRSPGTGEWHTFNDSSVTPMSSSQVRTSDAYLLFYELASPPSRM
notes: USP2, human, catalytic domain, residues 258-605; also called recombinant USP2; source: E. coli Rosetta2(DE3)pLacI, purified (HisTrap, 3C cleavage, SEC)
B5: USP42^70–446 (catalytic domain) (enzyme, human, UniProt Q9H9J4 70-446, looked up)
chain: DKSKPSPQKDQALGDGIAPPQKVLFPSEKICLKWQQTHRVGAGLQNLGNTCFANAALQCLTYTPPLANYMLSHEHSKTCHAEGFCMMCTMQAHITQALSNPGDVIKPMFVINEMRRIARHFRFGNQEDAHEFLQYTVDAMQKACLNGSNKLDRHTQATTLVCQIFGGYLRSRVKCLNCKGVSDTFDPYLDITLEIKAAQSVNKALEQFVKPEQLDGENSYKCSKCKKMVPASKRFTIHRSSNVLTLSLKRFANFTGGKIAKDVKYPEYLDIRPYMSQPNGEPIVYVLYAVLVHTGFNCHAGHYFCYIKASNGLWYQMNDSIVSTSDIRSVLSQQAYVLFYIRSHDVKNGGELTHPTHSPGQSSPRPVISQRVVTNKQ
notes: USP42, human, catalytic domain, residues 70-446; also called recombinant USP42; source: E. coli Rosetta2(DE3)pLacI, purified (HisTrap, 3C cleavage, reverse Ni-NTA, cation exchange)

What was measured:
Conditions in all cases: both partners purified
[1] = target: T1, ubiquitin-PA (untagged, wild type) (human, UniProt P0CG47 1-75, C-terminal propargylamine (PA) warhead); assay: activity-based probe labelling (covalent conjugate), SDS-PAGE; purified protease 2.5 µM and probe 10 µM, 1 h at 37 °C; 20 mM Tris pH 8.0, 300 mM NaCl, 2 mM DTT, 5% glycerol; SDS-PAGE and Coomassie staining
T1 construct: ubiquitin, human, residues 1-75 of the 76-residue ubiquitin; also called Ub-PA; wild-type ubiquitin-PA

[2] = target: T2, Fubi-PA (untagged, wild type) (human, UniProt P62861 1-73, C-terminal propargylamine (PA) warhead); assay: intact protein LC-MS; covalent USP36~probe complexes analysed by intact protein mass spectrometry
T2 construct: Fubi, human, residues 1-73 of the 74-residue Fubi; also called wild-type Fubi-PA; Fubi-based probe
T2 sequence (P62861 1-73): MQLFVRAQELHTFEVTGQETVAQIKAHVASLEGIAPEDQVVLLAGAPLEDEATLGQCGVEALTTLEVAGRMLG

[3] = target: T1, ubiquitin-PA (untagged, wild type); assay: as above

Binder	binding result [1]	stoichiometry N [2]	stoichiometry N [3]
B1	binds	–	–
B2	–	1	1
B3	binds	–	–
B4	binds	–	–
B5	binds	–	–
